Data on two substances can be found in patent publication US20210163923A1.

The assay deals with Heat inactivated human AB serum labelled with Dylight 633 (human). As to the kind of experiment: flow cytometry, IgG displayed on HEK293 cells, anti-Fc PE and Dylight 633 labelled human AB serum.

Regarding “Nivolumab displayed from pINT17-BSD (antibody)”, the % cells double positive for antibody and human serum binding is 3.7%. Vesencumab (antibody): the % cells double positive for antibody and human serum binding is 12.3%.
